Assay results from patent US11311625B2, “Peptide-based multiple-drug delivery vehicle” (priority 2015, dated 2022).
Read-outs that look alike come from different tables or passages of the source.

Legend:
[1] = test system: H1299 human non-small cell lung carcinoma cells; assay: XTT growth inhibition assay, H1299; format: cell-based; conditions: 10 μM, incubation of 72 h
Experimental: (§1) The cytotoxicity of the peptide-drug conjugates was determined by measuring the mitochondrial enzyme activity, using a commercial XTT assay kit. All samples contained DMSO at final concentration <0.05%. Cells were cultured in micro wells at 2-4×10^4 cells/ml and incubated for 24 h or 72 h. After the first incubation period the cultures were washed and then given fresh medium containing different concentrations of the tested substances. At the end of the second incubation, XTT reagent was added and the cells were re-incubated for additional 2-4 h. During that time the absorbencies in the wells were measured with a TECAN Infinite M200 plate reader at both 480 and 680 nm. The difference between these measurements was used for calculating the % Growth Inhibition (GI) in test wells compared to two controls: cells that were exposed to the medium and solvent, and those that were exposed to a solvent-free medium. All the tests were done in quadruplicates. Each experiment was conducted twice.
(§2) In order to compare the cytotoxic effects of the conjugates relative to the free drugs, the in vitro cytotoxic effect of the drug bioconjugates 1a-e was determined on SSTR2 overexpressed HCT 116 human colorectal carcinoma, H1299 human non-small cell lung carcinoma and TRAMP C2 human prostate cancer cell lines. The SSTR2 low-expressed HEK-293 (Human Embryonic Kidney 293) cell line was used as a negative control. The study was elaborated over a concentration range of 1-10 μM.
FIGS. 13A-13D present the results of the XTT growth inhibition assay conducted for conjugates 1a-e. […] After the treatment, growth inhibition was measured using the XTT assay: The culture medium was replaced by a new one, and then the XTT reagent was added. The wells were incubated for 2-4 hrs. after which the optical density (OD) was measured at 480 and 680 nm. Percentage of growth inhibition for each compound was calculated by comparison of the treated culture versus a control culture (free of any compound). The result shown for each concentration point represents the mean±standard error calculated from two different experiments. […]

[2] = test system: HCT 116, H1299, TRAMP C2 and HEK cell lines; assay: XTT growth inhibition assay, statements over all tested cell lines; format: cell-based, human; conditions: 1-10 μM, 24 and 72 h
Experimental: as §1, §2
FIGS. 13A-13D present the results of the XTT growth inhibition assay conducted for conjugates 1a-e. Growth inhibition effect of drug-conjugates versus free drugs was studied on three cell lines with an over-expression of SSTR2 (FIG. 13A. HCT 116; FIG. 13B. H1299; FIG. 13C. TRAMP C2) against the SSTR2 low expression cell line (FIG. 13D) HEK as negative control. All the cell lines were seeded and allowed to adhere in the wells, after which they were treated with the different compounds in increasing concentrations for 24 and 72 hr. After the treatment, growth inhibition was measured using the XTT assay: The culture medium was replaced by a new one, and then the XTT reagent was added. The wells were incubated for 2-4 hrs. after which the optical density (OD) was measured at 480 and 680 nm. Percentage of growth inhibition for each compound was calculated by comparison of the treated culture versus a control culture (free of any compound). The result shown for each concentration point represents the mean±standard error calculated from two different experiments. In each experiment the compounds were tested in quadruplicates.

[3] = Bio-stability and drug release of conjugates 1a-e in murine liver homogenate (LH); format: in vitro ADME, mouse
Experimental: Preparation of liver homogenate: Mice were sacrificed by CO2 inhalation euthanasia. The livers were removed, minced, washed three times in cold PBS buffer and homogenized in Tris-HCl buffer, pH 7.4 (wt/3 vol.) by dozen strokes in a Potter-Elvehjem glass tissue grinder. The tissue homogenate was centrifuged at 4° C., 14000 rpm, 20 min. The supernatant was carefully collected (liver homogenate) and used immediately or else stored in liquid nitrogen.
Incubation procedure: Incubations were conducted in a 37° C. incubator with 2 ml homogenate (equivalent to 6 mg total protein of mouse liver homogenate) per incubation tube. The samples were prepared by adding 50 μl of stock solution to the homogenate (homogenate mixture) at the beginning of the incubation period. Aliquots of the homogenate mixture were removed after 10, 30, 60, 90, 120 and 180 min and then immediately quenched with 2.5 volumes of ethanol. The samples were centrifuged at 14000 rpm for 15 min. Supernatants were collected, filtered and analyzed by LC-MS.
FIGS. 12A-12E present the results of the bio-stability and drug release profiles assays conducted for conjugates 1a-e in LH. […] Stock solutions were prepared by dissolving 5 mg of the measured conjugate in 0.5 ml DMSO. 50 μl of the stock solution were diluted with 2 ml of fresh mouse liver homogenate and then the mixture was incubated at 37° C. Aliquots were collected at 10, 30, 60, 90 and 120 min, mixed with 2.5 volumes of ethanol and centrifuged (14,000 rpm, 15 min). The supernatants were collected, filtered and analyzed by LC-MS

[4] = test system: TRAMP C2 prostate cancer cell lines; assay: XTT growth inhibition assay, TRAMP C2; format: cell-based, human; conditions: compared with corresponding free drugs
Experimental: as §1, with “The difference between these measurements was used for calculating the % Growth Inhibition (GI) in test wells compared to two controls: cells that were exposed to the medium and solvent, and those that were exposed to a solvent-free medium. All the tests were done in quadruplicates. Each experiment was conducted twice.” left out
In order to compare the cytotoxic effects of the conjugates relative to the free drugs, the in vitro cytotoxic effect of the drug bioconjugates 1a-e was determined on SSTR2 overexpressed HCT 116 human colorectal carcinoma, H1299 human non-small cell lung carcinoma and TRAMP C2 human prostate cancer cell lines. […]
FIGS. 13A-13D present the results of the XTT growth inhibition assay conducted for conjugates 1a-e. […] After the treatment, growth inhibition was measured using the XTT assay: The culture medium was replaced by a new one, and then the XTT reagent was added. The wells were incubated for 2-4 hrs. after which the optical density (OD) was measured at 480 and 680 nm. […]

[5] = Chemo-stability and drug release of conjugates 1a-e in buffers at pH 2, 5 and 7.4 (LC-MS); format: physicochemical; conditions: for half-life at 0.4 mg/ml: buffer
Experimental: Incubation procedure: Aqueous stability was determined at pH 2.0 (phosphate buffer), 5.0 (citrate buffer) and 7.4 (PBS buffer). 100 μl of the stock solutions were diluted to 2.5 ml with the desired buffer and then incubated at 37° C. During the incubation period (up to 200 hrs.), aliquots were removed at different time intervals, filtered and analyzed by LC-MS.
Chemo-stability. The chemo-stability tests of the conjugates were performed at three different pH values; a physiological pH of 7.4, the slightly acidic pH 5, mimicking the microenvironment in tumors, and the more acidic pH 2.
FIGS. 11A-11J present the results of the chemo-stability and drug release profiles assays, conducted for conjugates 1a-e at pH 2, 5 and 7.4. Degradation of 1a (FIG. 11A), 1b (FIG. 11C), 1c (FIG. 11E), 1d (FIG. 11G), 1e FIG. 11 (FIG. 11I), and the release of the corresponding drugs: CLB (FIG. 11B), CPT (FIG. 11D), AM (FIG. 11F), ABT-751 (FIG. 11H), and COMB (FIG. 11J). Stock solutions were prepared by dissolving 5 mg of the measured conjugate in 0.5 ml DMSO. 100 μl of the stock solution were diluted to 2.5 ml with the relevant buffer and then incubated at 37° C. Along the incubation period, aliquots were taken at the desired time points and analyzed by LC-MS.

SMILES	cytotoxic effect on H1299 [1]	cytotoxicity throughout the study [2]	release of free drug in liver homogenate ([3]; 37° C.)	cytotoxic effect on TRAMP C2 [4]	degradation of conjugate ([5]; all tested pH values (pH 2, 5, 7.4), 37° C.)	half-life at 0.4 mg/ml ([5]; all tested pH values, 37° C., read-out: average degradation t1/2 (converted))	half-life at 0.244 mg/ml ([3]; mouse, tissue homogenate, pH 7.4, 37° C., read-out: degradation t1/2 in liver homogenate)	degradation of conjugate in acidic media ([5]; acidic media, especially pH 2)	half-life at 0.4 mg/ml ([5]; pH 2, 37° C., read-out: degradation t1/2)
COc1ccc(S(=O)(=O)Nc2cccnc2Nc2ccc(OC(=O)NCCCC(=O)N[C@H](Cc3ccccc3)C(=O)N[C@H]3CSSCCN(CC(N)=O)C(=O)[C@H](Cc4ccccc4)NC(=O)[C@H]([C@@H](C)O)NC(=O)[C@H](CCCCN)NC(=O)[C@@H](Cc4c[nH]c5ccccc45)NC(=O)[C@H](Cc4c[nH]c5ccccc45)NC(=O)[C@H](Cc4ccccc4)NC3=O)cc2)cc1 [conjugate 1d]	most active	targeted but cell selective cytotoxicity	could hardly be detected	most potent targeted therapeutic effect	rapid degradation	480 min			
COc1ccc(/C=C\c2cc(OC)c(OC)c(OC)c2)cc1OC(=O)NCCCC(=O)N[C@H](Cc1ccccc1)C(=O)N[C@H]1CSSCCN(CC(N)=O)C(=O)[C@H](Cc2ccccc2)NC(=O)[C@H]([C@@H](C)O)NC(=O)[C@H](CCCCN)NC(=O)[C@@H](Cc2c[nH]c3ccccc23)NC(=O)[C@H](Cc2c[nH]c3ccccc23)NC(=O)[C@H](Cc2ccccc2)NC1=O [conjugate 1e]		targeted but cell selective cytotoxicity		most potent targeted therapeutic effect			26 min	degrades rapidly	4 min
